Measurements as given in patent US8030017B2, “Thermostable luciferases and methods of production” (Promega Corporation, priority 1997, dated 2011).

What was measured:
[1] = Robotic quantitative screen of E. coli lysates: signal stability (S), sustained enzymatic turnover; type: biochemical; conditions: inverse ratio with reference; Control is Luc85-4F12 at 65° C. (=1)
Method: One daughter plate is placed in the luminometer and the 1X assay method is used. After the assay, the plate is placed in the ambient incubator, and the second daughter plate is placed in the luminometer. For the second plate, the 0.02X assay method is used. This plate is discarded, and the first plate is returned from the incubator to the luminometer. The repeat assay method is used (i.e., no reagent is injected). Afterwards, the plate is again returned to the ambient incubator.
The plate in the ambient incubator is returned to the luminometer and the repeat assay method is again used. The plate is returned afterwards to the ambient incubator.
The plate in the ambient incubator is returned to the luminometer and the repeat assay method is again used. The plate is discarded afterwards.
The following criteria were used for screening purposes. The temperature chosen for the enzyme stability parameter was such that the parent enzyme would decay 100 to 1000 fold over 10 hours (see Table 1). Criteria 1 is achieved manually; data for criteria 2-6 is generated by robotic analysis. For all criteria, the maximum value as described is selected. • 1. In vivo screen. The brightest clones are selected at a given temperature. • 2. Expression/specific activity. The value for normalized luminescence is calculated as the ratio of luminescence to optical density. The value is reported as the ratio with the reference value. • 3. Enzyme stability. Measurements of normalized luminescence of the incubated samples (3 taken over about 15 hours) are fitted to In(L)=In(L0)−(t/τ), where L is normalized luminescence and t is time. τ is a measure of the enzyme stability. The value is reported as the ratio with the reference value, and the correlation coefficients are calculated. • 4. Substrate binding. Measurements of normalized luminescence with 1X and 0.02X are taken at the initial reading set, and 1X and 0.06X are taken at the 5 hour set. The ratio of the 0.02X:1X and 0.06X:1X gives the relative luminescence at 0.02X and 0.06X concentrations. These values, along with the relative luminescence at 1X (i.e., 1), are fitted to a Lineweaver-Burk plot to yield the Km:app,total for the substrates ATP, luciferin, and CoA. The values are reported as the inverse ratio with the reference value, and the correlation coefficients are calculated. • 5. Signal stability. The luminescence of the initial IX luminescent reactions are re-measured 3 additional times over about 15 hours. These values are fitted to In(L)=In(L0)−(t/τ) and the integral over t (15 hours) is calculated. Signal stability is then calculated as S=(1−int(L)/L0t)^2. The values are reported as the inverse ratio with the reference value, and the correlation coefficients are calculated. • 6. Composite fitness. The values of criteria 2 through 5 are combined into a single composite value of fitness (or commercial utility). This value is based on a judgment of the relative importance of the other criteria. This judgment is given below:
Calculate signal stability (S): For each sample, use linear regression to fit In(L)=In(L0)[…] using the four luminescence measurements of the initial microplate with 1X substrate concentrations (Plates 1, 3, 4, and 7). Also calculate the regression coefficient. From the calculated values of T and L0, calculate the integral of luminescence by int(L)=τL0(1−exp(−tf/τ)), where tf is the average time of the last measurement (e.g., 15 hours). The signal stability is calculated as S=(1−int(L)/Litf)^2, where Li is the initial measurement of normalized luminescence with 1× substrate concentration (Plate 1).
[Note: To correct for evaporation, an equation S=(1+K−int(L)/Litf)^2, may be used where 1/K=2(relative change of liquid volume at tf).]
Calculate the reference-normalized values: For the criteria parameter of each sample, a reference-normalized value is determined by calculating the ratio or inverse ratio with the respective reference value. […]

[2] = Michaelis-Menten constant for luciferin of purified mutants; type: biochemical; conditions: purified enzyme
Excerpt: (§1) Substrate binding was screened by measuring an apparent composite Km (see Example 2) for luciferin and ATP. […] The Km for luciferin rose while the Km for ATP declined (Table 3). The reason for this change is unknown, although it can be speculated that more efficient release of oxyluciferin or luciferin inhibitors could lead to more rapid enzyme turnover.
(§2) Protein purification: Four mutants that are described herein (Luc[T249M], Luc49-7C6, Luc78-0B10, and Luc90-1B5) were purified using a previously published procedure (Hastings et al., 1996).

[3] = Thermostability (half-life, retained activity) of luciferases incubated in aqueous solution at different temperatures; type: physicochemical; conditions: for loss in activity: aqueous solution
Excerpt: As defined herein, a “thermostable” enzyme, e.g., a luciferase, or an enzyme which has “thermostability”, is an enzyme which under certain conditions, e.g., at certain temperature, in aqueous solution and/or for certain periods of time, has an increased retention of activity relative to a reference enzyme. For example, for a thermostable luciferase, a reference luciferase may be native wild-type luciferase or recombinant wild-type luciferase. Preferably, for beetle luciferases, the activity is luminescence under conditions of saturation with luciferin and ATP. One measure of thermostability of an enzyme is the half-life of the enzyme in an aqueous solution (the time over which 50% of the activity is lost) at a stated temperature.
as §2
[…] Enzyme stability was determined from diluted proteins incubated at different temperatures, and aliquots were removed at different time points. A linear regression of the natural log of the luminescence and time was calculated. Half-life was calculated as the 1n(0.5)/slope of the regression.

[4] = Retention of luminescence activity at pH 4.5 and 48° C.; type: physicochemical; conditions: pH 4.5 and 48° C. (FIG. 54B)
Method: Three populations of random mutants were produced using clone Luc90-1B5 as a template. These three populations were screened on the robot as experiments 114, 115, and 117. […] These screening conditions were biased to select clones that have increased retention of luminescence activity over time at pH 4.5 at 48° C. and increased luminescence activity when assayed at pH 7.1 with 10 μM ATP. Seventeen clones from experiment 114, seven clones from experiment 115, and ten clones from experiment 116 were shuffled together using sPCR and selected mutants from this screen were run on the robot as experiment 117. Eighteen clones were selected from experiment 117.

[5] = Michaelis-Menten constant for ATP of purified mutants; type: biochemical; conditions: purified enzyme
Excerpt: as §1, §2

- Km [2]: 2.2 µM
B1: Luc90-1B5: mutant luciferase, SEQ ID NO:24 (protein)
chain: MADKNILYGPEPFYPLEDGTAGEQMFDALSRYADIPGCIALTNAHTKENVLYEEFLKLSCRLAESFKKYGLKQNDTIAVCSENGLQFFLPVIASLYLGIIVAPVNDKYIERELIHSLGIVKPRIVFCSKNTFQKVLNVKSKLKSIETIIILDLNEDLGGYQCLNNFISQNSDSNLDVKKFKPYSFNRDDQVALIMFSSGTTGLPKGVMLTHKNIVARFSLAKDPTFGNAINPTTAILTVIPFHHGFGMMTTLGYFTCGFRVVLMHTFEEKLFLQSLQDYKVESTLLVPTLMAFLAKSALVEKYDLSHLKEIASGGAPLSKEIGEMVKKRFKLNFVRQGYGLTETTSAVLITPKGDAKPGSTGKIVPFHAVKVVDPTTGKILGPNEPGELYFKGPMIMKGYYNNEEATKAIIDNDGWLRSGDIAYYDNDGHFYIVDRLKSLIKYKGYQVAPAEIEGILLQHPYIVDAGVTGIPDEAAGELPAAGVVVQTGKYLNEQIVQDYVASQVSTAKWLRGGVKFLDEIPKGSTGKIDRKVLRQMFEKHTNG
modifications: Mutant luciferase
- Signal stability (S) [1]: 1.0011
- increased thermostability compared to LucPpe2 [T249M] [3]: about 35 °C
- stability ([3]; 22° C. over several weeks, pH 6.5 (FIG. 16B)): stable
- activity loss ([3]; 65° C. over several hours, citrate buffer at pH 6.5 (FIG. 16A)): very little activity loss
- half-life ([3]; 65° C., same buffer conditions as Table 2 (FIG. 16A)): 27 h
- activity maintained ([3]; after 120 hours (5 days) at 50° C., 25 mol/L citrate pH 6.5, 150 mmol/L NaCl, 1 mg/mL BSA, 0.1 mmol/L EDTA, 5% glycerol): 75%
- loss in activity ([3]; 2 hours at 50° C.): 5%
- loss in activity ([3]; 5 hours at 65° C.): 5%
- loss in activity ([3]; over 6 weeks at 22° C.): 5%
- half-life [4]: about 3 minutes
- Km [5]: 3 µM
